The text below walks through data of PMC4750872.

This assay addresses gankyrin (UniProt O75832). Kind of assay: ITC.
Chain of UniProt O75832 (O75832 whole entry): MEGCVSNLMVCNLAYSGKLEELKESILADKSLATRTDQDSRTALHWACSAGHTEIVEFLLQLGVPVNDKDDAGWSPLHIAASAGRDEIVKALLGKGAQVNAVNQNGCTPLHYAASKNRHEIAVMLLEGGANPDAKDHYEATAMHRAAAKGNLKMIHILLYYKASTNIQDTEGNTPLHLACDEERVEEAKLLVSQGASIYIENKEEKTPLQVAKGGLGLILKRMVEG

The substance FtsH-S6 ATPase registered a dH of -29 kcal/mol.
